# Results taken from patent publication US20050176083.
# T1: human factor VIIIa, P00451
# T1 chain: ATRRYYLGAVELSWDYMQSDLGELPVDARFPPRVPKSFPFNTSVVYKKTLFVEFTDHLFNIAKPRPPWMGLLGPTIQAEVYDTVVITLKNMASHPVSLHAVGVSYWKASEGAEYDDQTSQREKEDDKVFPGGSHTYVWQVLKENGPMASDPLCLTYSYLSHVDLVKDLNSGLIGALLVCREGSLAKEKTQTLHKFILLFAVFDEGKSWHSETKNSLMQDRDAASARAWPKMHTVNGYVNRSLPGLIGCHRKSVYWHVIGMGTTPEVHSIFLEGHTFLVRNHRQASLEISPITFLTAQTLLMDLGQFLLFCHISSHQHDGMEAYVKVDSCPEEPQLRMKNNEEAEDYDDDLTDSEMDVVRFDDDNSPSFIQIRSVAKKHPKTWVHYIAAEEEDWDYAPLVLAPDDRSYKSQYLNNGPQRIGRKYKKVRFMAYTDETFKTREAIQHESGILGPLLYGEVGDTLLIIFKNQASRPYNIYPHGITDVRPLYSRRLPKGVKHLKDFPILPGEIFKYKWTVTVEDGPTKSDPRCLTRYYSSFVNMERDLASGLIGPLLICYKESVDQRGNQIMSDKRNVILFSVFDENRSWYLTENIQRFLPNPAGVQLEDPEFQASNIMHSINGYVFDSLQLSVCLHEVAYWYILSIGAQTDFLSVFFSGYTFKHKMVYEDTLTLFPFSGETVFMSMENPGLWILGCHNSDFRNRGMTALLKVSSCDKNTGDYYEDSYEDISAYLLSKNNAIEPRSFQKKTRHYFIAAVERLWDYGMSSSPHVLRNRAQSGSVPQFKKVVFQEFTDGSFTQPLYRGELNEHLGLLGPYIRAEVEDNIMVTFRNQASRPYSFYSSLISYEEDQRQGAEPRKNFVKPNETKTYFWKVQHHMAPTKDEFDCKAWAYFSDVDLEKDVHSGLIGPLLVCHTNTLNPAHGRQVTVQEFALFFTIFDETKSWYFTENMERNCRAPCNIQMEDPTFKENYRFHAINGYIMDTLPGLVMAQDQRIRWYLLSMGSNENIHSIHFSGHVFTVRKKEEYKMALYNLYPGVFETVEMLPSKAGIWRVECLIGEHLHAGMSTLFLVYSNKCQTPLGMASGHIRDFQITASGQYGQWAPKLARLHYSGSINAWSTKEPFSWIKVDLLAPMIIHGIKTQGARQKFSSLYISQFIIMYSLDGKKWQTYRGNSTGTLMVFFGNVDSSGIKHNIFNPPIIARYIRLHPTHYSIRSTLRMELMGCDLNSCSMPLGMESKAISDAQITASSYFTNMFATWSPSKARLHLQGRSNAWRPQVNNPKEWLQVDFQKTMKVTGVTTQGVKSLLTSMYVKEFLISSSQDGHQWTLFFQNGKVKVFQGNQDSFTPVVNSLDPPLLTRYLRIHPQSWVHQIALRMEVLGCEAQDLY
# B1: wild-type human activated protein C (recombinant, thrombin-activated) (protein)
# chain 1: ANSFLEELRHSSLERECIEEICDFEEAKEIFQNVDDTLAFWSKHVDGDQCLVLPLEHPCASLCCGHGTCIDGIGSFSCDCRSGWEGRFCQREVSFLNCSLDNGGCTHYCLEEVGWRRCSCAPGYKLGDDLLQCHPAVKFPCGRPWKRMEKKRSHL
# chain 2: LIDGKMTRRGDSPWQVVLLDSKKKLACGAVLIHPSWVLTAAHCMDESKKLLVRLGEYDLRRWEKWELDLDIKEVFVHPNYSKSTTDNDIALLHLAQPATLSQTIVPICLPDSGLAERELNQAGQETLVTGWGYHSSREKEAKRNRTFVLNFIKIPVVPHNECSEVMSNMVSENMLCAGILGDRQDACEGDSGGPMVASFHGTWFLVGLVSWGEGCGLLHNYGVYTKVSRYLDWIHGHIRDKEAPQKSWAP
# B2: wild-type bovine activated protein C (recombinant, thrombin-activated) (protein)
# chain 1: ANSFLEELRPGNVERECSEEVCEFEEAREIFQNTEDTMAFWSKYSDGDQCEDRPSGSPCDLPCCGRGKCIDGLGGFRCDCAEGWEGRFCLHEVRFSNCSAENGGCAHYCMEEEGRRHCSCAPGYRLEDDHQLCVSKVTFPCGRLGKRMEKKRKTL
# chain 2: IVDGQEAGWGESPWQAVLLDSKKKLVCGAVLIHVSWVLTVAHCLDSRKKLIVRLGEYDMRRWESWEVDLDIKEVIIHPNYTKSTSDNDIALLRLAKPATLSQTIVPICLPDSGLSERKLTQVGQETVVTGWGYRDETKRNRTFVLSFIKVPVVPYNACVHAMENKISENMLCAGILGDPRDACEGDSGGPMVTFFRGTWFLVGLVSWGEGCGRLYNYGVYTKVSRYLDWIYGHIKAQEAPLESQVP
# Experiments:
# [1] = target: Q506 mutant human factor Va (FVa Leiden), P12259
# [2] = target: bovine factor Va (in bovine plasma), Q28107
# [3] = target: T1, human factor VIIIa, P00451
# [4] = target: human factor Va (normal, from human plasma), P12259
# Sequence of human factor Va (normal, from human plasma), P12259 (P12259 29-2224): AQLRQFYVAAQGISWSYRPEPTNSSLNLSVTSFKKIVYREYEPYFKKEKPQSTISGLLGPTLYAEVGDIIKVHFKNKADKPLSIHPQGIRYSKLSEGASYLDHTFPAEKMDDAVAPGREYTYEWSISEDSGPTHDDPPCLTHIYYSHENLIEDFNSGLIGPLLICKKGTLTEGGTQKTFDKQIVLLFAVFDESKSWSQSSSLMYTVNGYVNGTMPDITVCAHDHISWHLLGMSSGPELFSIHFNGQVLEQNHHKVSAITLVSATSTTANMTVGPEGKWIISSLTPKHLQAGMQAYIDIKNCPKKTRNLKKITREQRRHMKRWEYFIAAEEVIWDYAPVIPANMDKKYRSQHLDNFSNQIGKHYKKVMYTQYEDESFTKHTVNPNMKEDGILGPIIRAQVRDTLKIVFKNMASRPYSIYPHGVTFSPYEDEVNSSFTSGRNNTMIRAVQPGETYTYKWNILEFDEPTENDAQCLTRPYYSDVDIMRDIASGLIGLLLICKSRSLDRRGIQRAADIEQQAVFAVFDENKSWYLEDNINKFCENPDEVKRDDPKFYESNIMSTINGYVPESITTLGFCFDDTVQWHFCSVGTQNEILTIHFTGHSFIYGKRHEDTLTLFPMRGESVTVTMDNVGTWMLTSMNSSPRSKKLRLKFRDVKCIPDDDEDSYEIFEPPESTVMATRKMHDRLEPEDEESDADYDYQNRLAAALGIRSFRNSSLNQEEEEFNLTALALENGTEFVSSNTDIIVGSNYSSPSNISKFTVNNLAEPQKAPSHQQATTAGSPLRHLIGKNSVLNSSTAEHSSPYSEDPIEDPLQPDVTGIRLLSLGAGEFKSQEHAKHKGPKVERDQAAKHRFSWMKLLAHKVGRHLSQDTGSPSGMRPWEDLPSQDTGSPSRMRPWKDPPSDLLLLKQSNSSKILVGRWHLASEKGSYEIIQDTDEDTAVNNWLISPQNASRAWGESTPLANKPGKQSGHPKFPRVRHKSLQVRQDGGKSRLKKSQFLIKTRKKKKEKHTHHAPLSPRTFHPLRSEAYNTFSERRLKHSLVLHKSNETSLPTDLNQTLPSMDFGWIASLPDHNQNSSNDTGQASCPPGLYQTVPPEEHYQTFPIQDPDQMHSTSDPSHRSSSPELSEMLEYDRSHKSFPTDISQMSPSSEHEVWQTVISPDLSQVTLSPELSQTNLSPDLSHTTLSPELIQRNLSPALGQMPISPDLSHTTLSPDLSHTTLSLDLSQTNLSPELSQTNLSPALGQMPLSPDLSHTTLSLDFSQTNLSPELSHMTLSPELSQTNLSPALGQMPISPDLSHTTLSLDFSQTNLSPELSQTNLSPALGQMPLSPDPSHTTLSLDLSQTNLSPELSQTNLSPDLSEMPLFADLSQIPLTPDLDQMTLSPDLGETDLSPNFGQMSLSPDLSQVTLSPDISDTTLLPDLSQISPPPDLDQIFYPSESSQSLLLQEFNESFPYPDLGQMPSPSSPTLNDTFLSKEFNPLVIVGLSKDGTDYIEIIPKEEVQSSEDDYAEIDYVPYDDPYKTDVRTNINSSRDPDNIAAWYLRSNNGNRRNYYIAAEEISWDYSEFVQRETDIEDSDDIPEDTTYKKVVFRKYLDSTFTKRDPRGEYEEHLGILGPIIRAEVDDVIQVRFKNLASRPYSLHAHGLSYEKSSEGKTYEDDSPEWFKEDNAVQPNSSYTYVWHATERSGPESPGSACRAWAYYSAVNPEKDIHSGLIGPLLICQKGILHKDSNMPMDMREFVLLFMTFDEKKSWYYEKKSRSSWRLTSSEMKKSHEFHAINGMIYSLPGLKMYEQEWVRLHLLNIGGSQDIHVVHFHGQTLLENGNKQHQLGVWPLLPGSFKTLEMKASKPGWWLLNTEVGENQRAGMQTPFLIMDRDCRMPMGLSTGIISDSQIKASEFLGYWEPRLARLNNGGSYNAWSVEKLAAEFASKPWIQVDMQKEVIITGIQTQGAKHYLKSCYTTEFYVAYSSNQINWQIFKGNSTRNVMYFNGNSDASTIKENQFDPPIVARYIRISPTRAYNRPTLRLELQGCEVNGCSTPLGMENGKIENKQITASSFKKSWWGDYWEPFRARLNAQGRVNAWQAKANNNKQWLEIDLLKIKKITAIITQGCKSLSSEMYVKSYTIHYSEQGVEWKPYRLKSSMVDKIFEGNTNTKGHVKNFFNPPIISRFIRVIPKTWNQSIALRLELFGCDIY
# Sequence of bovine factor Va (in bovine plasma), Q28107 (Q28107 29-2211): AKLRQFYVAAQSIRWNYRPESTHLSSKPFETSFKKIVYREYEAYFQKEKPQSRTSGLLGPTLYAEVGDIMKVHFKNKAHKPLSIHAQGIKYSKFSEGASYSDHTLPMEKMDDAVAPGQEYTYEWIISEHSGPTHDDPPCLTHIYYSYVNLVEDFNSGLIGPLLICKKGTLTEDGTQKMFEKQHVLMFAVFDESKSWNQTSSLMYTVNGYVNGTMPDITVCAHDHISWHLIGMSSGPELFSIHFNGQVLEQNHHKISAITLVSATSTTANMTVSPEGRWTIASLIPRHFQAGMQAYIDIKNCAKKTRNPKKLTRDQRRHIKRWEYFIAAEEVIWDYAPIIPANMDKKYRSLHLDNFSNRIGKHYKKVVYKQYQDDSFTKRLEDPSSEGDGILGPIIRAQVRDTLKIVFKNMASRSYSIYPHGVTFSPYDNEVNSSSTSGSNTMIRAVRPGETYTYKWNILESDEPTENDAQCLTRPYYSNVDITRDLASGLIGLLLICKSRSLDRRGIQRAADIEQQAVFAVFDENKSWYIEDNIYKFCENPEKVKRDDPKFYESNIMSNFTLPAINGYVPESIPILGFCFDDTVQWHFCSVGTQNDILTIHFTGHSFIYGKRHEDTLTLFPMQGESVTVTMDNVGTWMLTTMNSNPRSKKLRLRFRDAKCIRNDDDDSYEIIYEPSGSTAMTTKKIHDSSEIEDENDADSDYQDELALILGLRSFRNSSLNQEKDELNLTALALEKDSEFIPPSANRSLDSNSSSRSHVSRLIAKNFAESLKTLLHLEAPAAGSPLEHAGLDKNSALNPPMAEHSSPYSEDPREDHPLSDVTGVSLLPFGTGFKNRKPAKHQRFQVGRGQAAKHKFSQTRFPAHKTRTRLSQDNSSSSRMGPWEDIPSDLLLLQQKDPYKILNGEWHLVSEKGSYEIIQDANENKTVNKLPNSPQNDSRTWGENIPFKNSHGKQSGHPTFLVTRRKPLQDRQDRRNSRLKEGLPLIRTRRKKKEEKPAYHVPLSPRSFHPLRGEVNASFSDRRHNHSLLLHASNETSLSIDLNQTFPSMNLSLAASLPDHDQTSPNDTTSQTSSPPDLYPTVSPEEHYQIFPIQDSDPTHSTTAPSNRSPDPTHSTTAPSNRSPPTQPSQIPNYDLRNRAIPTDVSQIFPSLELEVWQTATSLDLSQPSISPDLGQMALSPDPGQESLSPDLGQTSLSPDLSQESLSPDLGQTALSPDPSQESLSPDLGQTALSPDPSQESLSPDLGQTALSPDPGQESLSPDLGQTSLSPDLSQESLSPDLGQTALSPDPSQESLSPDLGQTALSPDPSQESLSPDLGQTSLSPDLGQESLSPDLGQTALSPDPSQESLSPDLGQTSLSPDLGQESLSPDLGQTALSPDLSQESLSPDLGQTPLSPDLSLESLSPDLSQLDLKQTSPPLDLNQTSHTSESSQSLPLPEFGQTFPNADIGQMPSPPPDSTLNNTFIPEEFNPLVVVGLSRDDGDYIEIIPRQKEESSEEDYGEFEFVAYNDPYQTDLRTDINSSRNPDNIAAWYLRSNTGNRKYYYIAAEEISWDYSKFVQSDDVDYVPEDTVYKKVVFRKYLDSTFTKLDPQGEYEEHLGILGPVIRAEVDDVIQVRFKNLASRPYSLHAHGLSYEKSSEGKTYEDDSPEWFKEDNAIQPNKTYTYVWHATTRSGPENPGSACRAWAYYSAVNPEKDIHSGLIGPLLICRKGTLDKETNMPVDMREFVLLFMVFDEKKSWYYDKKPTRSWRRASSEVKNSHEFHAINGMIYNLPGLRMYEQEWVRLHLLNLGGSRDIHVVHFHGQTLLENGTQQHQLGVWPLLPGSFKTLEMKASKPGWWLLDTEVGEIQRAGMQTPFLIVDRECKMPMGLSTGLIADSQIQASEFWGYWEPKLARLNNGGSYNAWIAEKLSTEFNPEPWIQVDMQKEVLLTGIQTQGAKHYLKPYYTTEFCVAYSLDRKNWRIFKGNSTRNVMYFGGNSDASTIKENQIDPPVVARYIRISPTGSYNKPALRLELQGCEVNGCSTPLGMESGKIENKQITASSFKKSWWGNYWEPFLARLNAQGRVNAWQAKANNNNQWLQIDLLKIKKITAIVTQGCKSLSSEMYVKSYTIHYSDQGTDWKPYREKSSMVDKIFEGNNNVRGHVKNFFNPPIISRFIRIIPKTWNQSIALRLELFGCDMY
# Sequence of Q506 mutant human factor Va (FVa Leiden), P12259 (P12259 other isoform, or with tags, fused parts or gaps mutant): as the sequence (P12259 29-2224) above, with R506Q counted along it
protein,measurement,setting,value
B1,"remaining FVa activity over time (prothrombinase assay); plasma FVa, 0.4 nM APC, phospholipid vesicles",[1],The addition of wt APC resulted in a slow decrease in FVa activity corresponding to cleavage at Arg306
same,"prothrombin time (PT) assay, clotting time in bovine plasma",[2],wild-type human APC and human APC-SP efficiently prolong clotting time in bovine plasma
same,"factor VIIIa inactivation assay (FXa formation, S-2222) with human protein S and factor V",[3],the activity of factor VIIIa was inactivated by all APC's from section (2)(i) above but high concentrations were needed
same,factor VIIIa inactivation assay with bovine protein S and bovine factor V,[3],able to inhibit factor VIIIa activity in the presence of bovine protein S and bovine factor V
same,"prothrombin time (PT) assay, clotting time in human plasma",[4],Both wild-type human APC and human APC-SP increased clotting times essentially in this PT assay
same,"remaining FVa activity over time (prothrombinase assay, S2238); 0.76 nM plasma FVa, 0.39 nM APC, phospholipid vesicles",[4],initial rapid loss of FVa activity that is observed during the first 5 minutes of incubation; slow decrease in FVa activity observed between 5 minutes and 25 minutes of incubation
B2,"prothrombin time (PT) assay, clotting time in bovine plasma",[2],wild-type bovine APC and its mutant expressed only weak anticoagulant acitivity in bovine plasma
same,"factor VIIIa inactivation assay (FXa formation, S-2222) with human protein S and factor V",[3],the activity of factor VIIIa was inactivated by all APC's from section (2)(i) above but high concentrations were needed
same,factor VIIIa inactivation assay with bovine protein S and bovine factor V,[3],able to inhibit factor VIIIa activity in the presence of bovine protein S and bovine factor V; worked more efficiently than wild-type human APC and human APC-SP
same,"factor VIIIa inactivation assay with human protein S and factor V, low APC concentrations",[3],"At low concentrations, neither bovine wild-type APC nor bovine APC-SP could inactivate factor VIIIa"
same,"prothrombin time (PT) assay, clotting time in human plasma",[4],Neither wild-type bovine APC nor bovine APC-SP had any effect in human plasma
